In article PMC10653801:

B1: OI (O1 downstream repeat inverted) (dsDNA)
DNA 1: TATCATTTTTACTGCTATAAAATGACTATATAATTAATTTTTGGTGTTCC
DNA 2: GGAACACCAAAAATTAATTATATAGTCATTTTATAGCAGTAAAAATGATA
B2: OS (O1 scrambled) (dsDNA)
DNA 1: TATCATTTAACAAACTCGATTTGTTATATATAATTAATTTTTGGTGTTCC
DNA 2: GGAACACCAAAAATTAATTATATATAACAAATCGAGTTTGTTAAATGATA
B3: CO (random + O1) (dsDNA)
DNA 1: ACTGTGAGCCTAATATTTACTGCTATAACAGTAAAGGCTATCTGATTTTA
DNA 2: TAAAATCAGATAGCCTTTACTGTTATAGCAGTAAATATTAGGCTCACAGT

biological target: HipB(Lp) (Legionella pneumophila Lp01JK, UniProt Q5ZSZ8 1-75); assay: EMSA; HipB 2.5 nM, DNA 10 nM; conditions: protein: recombinant; tags: His6-SBP tag cleaved; chain copies: 2; blunt

Question: Does B1 bind?
Answer: binds

Question: Does B2 bind?
Answer: no binding

Question: Does B3 bind?
Answer: binds
